Assay results from patent US12673132B2, “Extrusion printing of biocompatible scaffolds” (William Marsh Rice University, priority 2020, dated 2026).
No end group written: not given here.

Columns and labels:
[1] = microCT physical characterization of 3D printed PCL constructs; type: physicochemical; conditions: melt-extruded 4-layer crosshatch scaffold
Method: The 3D printed PCL constructs were fabricated by melt extrusion with an EnvisionTEC 3D Bioplotter Manufacturer (Gladbeck, Germany). The polymer of interest was placed in a metal cartridge, heated to 85-95° C., and extruded through a 27G needle at 4.9-5.1 bar pressure, 4.0 mm/s deposition speed, and 0.4 s pre-flow and post-flow, with imaging after each layer. Constructs were printed as a cylindrical, alternating crosshatch pattern with 4 layers of 5 mm diameter and 220 μm thickness, producing scaffolds with total dimensions of 5 mm diameter and 0.88 mm height. The porosity, average fiber diameter, and average pore diameter of each construct was assessed by microcomputed tomography (μCT) using a Bruker SkyScan 1272 (Billerica, MA). Scans were acquired at a voltage of 40 kV and a current of 250 μA, with a rotation step size of 0.4°, 8 μm/pixel, frame averaging of 6, and random movement of 10. Reconstruction, slicing, and analysis were performed in Bruker NRecon and CTAn software (Billerica, MA) and LabView (Austin, TX). For quantification of physical architectural properties, a proportional volume of interest was set at 75% scale of the x, v, and z axes, equally spaced from the scaffold edges.

[2] = system: Rat bone marrow derived MSCs; test: Arsenazo III assay (bone-specific mineralization) of MSC-seeded printed scaffolds; type: cell-based; conditions: mixed osteochondral medium
Excerpt: (§1) Rat bone marrow derived MSCs (mesenchymal stem cells) were harvested by aspiration of bone marrow from the tibia of five 6-8 week old male Fischer 344 rats from Charles River Laboratories (Wilmington, MA), in accordance with protocols approved by the Rice Institutional Animal Care and Use Committee and in agreement with the animal care and use guidelines set forth by the National Institutes of Health. Cells from all rats were pooled to minimize inter-animal variability. Adherent cells were cultured in growth medium (DMEM with 10% v/v FBS and 1% v/v antibiotic-antimycotic) inside a humidified incubator at 37° C. and 5% CO2, and cryopreserved in liquid N2 until point of usage. All MSCs were used at Passage 3. Printed constructs were sterilized by exposure of both sides to UV light for 3 h, immersion in a sterile gradient (100%, 75%, 50%, 25%, 0%) of ethanol and PBS, and two additional washes in PBS. […] After weighing, each scaffold was frozen at −20° C. until ready for characterization. […] After homogenization, the proteinase K and acetic acid suspensions were allowed to digest for 16 h at 65° C. and room temperature, respectively, followed by quantification of biochemical content using assay kits. […] The bioactivity of PCL-peptide composites was determined by seeding MSCs on 3D printed constructs and investigating their ability to promote bone- and cartilage-specific ECM deposition in vitro. […]

[3] = system: Rat bone marrow derived MSCs; test: DMMB assay (cartilage-specific sulfated glycosaminoglycans) of MSC-seeded printed scaffolds; type: cell-based
Excerpt: as §1, with “PBS. MSCs were seeded on the scaffolds by pipetting 30 μL of a 3.3×10^6 cells/mL suspension on top of each scaffold in a low-attachment 24-well plate. After 2 h, 970 μL of growth medium was gently added to each well. After 24 h of cell attachment, the growth medium was replaced with either chondrogenic, osteogenic, or osteochondral medium. Parallel chondrogenic (PCL-alkyne, PCL-NC) and osteogenic (PCL-alkyne, PCL-GHK) studies were conducted, in which scaffolds were cultured in both tissue-specific medium as well as mixed osteochondral medium.” for “PBS.”

[4] = system: Rat bone marrow derived MSCs; test: PicoGreen assay (DNA content) of MSC-seeded printed scaffolds; type: cell-based; conditions: osteogenic and osteochondral media, up to 28 days, FIG. 5A
Excerpt: as §1

PCL-BMPm: PCL-alkyne click-conjugated to azide-terminated bone morphogenetic protein mimetic peptide (SEQ ID NO: 1, GGGRHVRISRSL) (GGGRHVRISRSL-NH2; not fully specified (N-terminus); also: N-terminal azide click-conjugated to PCL-alkyne)
Average Fiber Diameter [1]: 262 ± 48 μm
Average Pore Diameter [1]: 419 ± 37 μm
Porosity [1]: 70.7 ± 4.2%

PCL-NC: PCL-alkyne click-conjugated to azide-terminated N-cadherin peptide (SEQ ID NO: 3, GGGHAVDI) (GGGHAVDI-NH2; not fully specified (N-terminus); also: N-terminal azide click-conjugated to PCL-alkyne)
Average Fiber Diameter [1]: 200 ± 9 μm
Average Pore Diameter [1]: 432 ± 31 μm
Porosity [1]: 71.8 ± 3.7%
Bone-specific calcium content normalized to cellular content (mineralization per cell) ([2]; FIG. 5B): greater mineralization per cell
Bone-specific calcium content normalized to scaffold mass (scaffold mineralization) ([2]; FIG. 5C): did not produce statistically significant effects on scaffold mineralization
sGAG content normalized to cellular content (sGAG deposition per cell) ([3]; chondrogenic medium, up to day 28, FIG. 5D): large spike in cartilage-specific sGAG deposition per cell by day 28
sGAG content normalized to cellular content (sGAG deposition per cell) ([3]; mixed osteochondral medium, over time, FIG. 5D): maintained a constant level of sGAG deposition per cell
sGAG content normalized to scaffold mass ([3]; serum-free chondrogenic medium, FIG. 5E): statistically significant increase in mass-normalized sGAG content
DNA content normalized to scaffold mass (cell proliferation) [4]: statistically lower proliferation
